Source: the supplement of paper PMC12042874
± gives the uncertainty stated by the source.

Test: amyloid nucleation score (Sup35N fusion, yeast selection) (log enrichment); library NNK1; higher = more nucleation; inactive = no reads after selection
In short: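 Growth for 7 days at 30°C on medium lacking adenine and uracil followed a 24-hour induction with 100 μM copper sulfate of psi-negative yeast expressing peptides of 20 random codons fused to Sup35N. Input and output plasmid inserts were sequenced with Illumina, and sequences with under 100 input reads were excluded. Nucleation score is the DiMSum log enrichment of output over input reads, centred on the mode score of non-aggregating sequences.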

Point of comparison: TYLVILR, amyloid nucleation score 0.33 ± 0.39. Against it:
- CDKGPGCWVRMKQPGRLQMG — higher, 3.46 ± 0.076
- SGRLVSRGTKHNQSSRCE — within error, -0.232 ± 0.9
- PSSTNMGRDGWLDCQVHTFE — within error, -0.009 ± 0.28
- CCIVSGFALSSTTRMNVR — higher, 1.77 ± 0.15
- YTWMSIEIY — higher, 1.71 ± 0.4
- YIKMIR — within error, -0.759 ± 0.97
- YVHLYDDCTIGSTRAEGRGY — within error, 0.777 ± 1.2
- RSCLMSC — within error, 0.141 ± 0.54
- IENSIGGMQLGVSISYMSGT — within error, 0.208 ± 0.41
- HVSSSE — within error, -0.174 ± 1.1
- VHSWQVVRYFRFLVLYSWDR — within error, 0.539 ± 0.42
- VARSHYMCI — within error, 0.132 ± 0.38
- RSRVLRMLFPAGEDYQLHMV — within error, 0.8 ± 0.65
- EMWRYRRVGIPRLA — within error, 0.358 ± 0.92
- TVRKDGNTRSFFSSLRMQAS — lower, -0.654 ± 0.3
- YSLFAGIG — within error, 0.735 ± 0.85
- QSDMGIIP — within error, 0.153 ± 0.47
- SMTKSIGMRSYGMVAHGAGS — within error, 0.722 ± 0.45
- IMVANVSPSQKFNG — within error, 0.346 ± 0.4
- DEPMSDLALVFMYYTVYPGG — within error, 0.638 ± 0.55
- QPALPSGPVDQS — within error, 0.42 ± 0.35
- GGVVCRVKGKNRFPLVSWQF — within error, -0.565 ± 0.61
- SGSNEWSRENLIGVFVVPGQ — within error, -0.21 ± 1.1
- TLGSIGLAIGRSTTGGRS — within error, 0.51 ± 0.9
- ALCVWQRLSRLLLDTPWHVR — within error, 0.806 ± 0.69
- CILWDWMYEGMKTSEGIFDR — within error, 0.118 ± 0.71
- AGIIVWN — within error, -0.087 ± 0.31
- TRCYFNSLMCTDTNSCIAGV — within error, -0.135 ± 0.26
- NIQSDRVHIFNELVRFSRWK — within error, 0.829 ± 0.97
- FICFYVVSYTIMSLLFDTLG — within error, 0.713 ± 0.92
- NDRLLMVRYILHFESNAMTW — within error, 0.794 ± 0.38
- MVAMVNT — within error, -0.087 ± 0.28
- LLLGYVKSSLPIVGYSRMEG — within error, 0.548 ± 0.35
- LLGVGCNRIDWLNGAKN — higher, 2.04 ± 0.49
- RFIFIQRVNRVFLQDSWKMV — higher, 6.39 ± 0.075
- NNFFITVHSLLIRSSTHMR — within error, 0.015 ± 0.37
- SNTKIED — within error, 0.508 ± 0.59
- DTPRCRGVS — within error, -0.197 ± 1.2
- SCFLC — higher, 1.4 ± 0.18
- LFVFPVESCMCMQLRVAQSK — within error, 0.642 ± 0.62
- RMNGLSGRLSTAWQFMYMWC — within error, -0.153 ± 0.34
- LFCIERWMSNCFG — within error, 0.112 ± 0.75
- RDKLYA — within error, -1.2 ± 1.5
- VSMHNLMQRFSGFMYQCFAG — higher, 1.55 ± 0.2
- AHYPFI — within error, 0.065 ± 1.5
- GSNFTKVCILPSLHRTLLVG — within error, -0.222 ± 1.4
- TCGSYV — within error, 0.215 ± 0.42
- RLICGPWNYCCQYKYNHLVL — higher, 4 ± 0.12
- VLVDKSDRVRGLS — within error, -0.101 ± 0.3
- FYRNTGFMW — within error, -1.42 ± 2.7
- LFNSYIAVGVKKTSSEVMQR — within error, 0.385 ± 0.55
- KFIEMRRNKSPKHLPAWASD — within error, 0.911 ± 0.54
- SGMFYILPTSPGYAHEVPRR — within error, 0.393 ± 0.35
- TPLNTLYRLPMGNWLG — within error, 0.06 ± 0.26
- VNSIESCANFH — within error, -0.198 ± 1.7
- NTQFHCDDFQLVHDIQ — within error, 0.214 ± 0.38
- NVKLFFNIFVGKSKIHTTPW — higher, 6.308 ± 0.058
- SSRLLCYRSVGAFISVGNEV — within error, 0.675 ± 0.19
- FMPFASKCGCPN — within error, 0.595 ± 0.41
- FGSMFVRLFFGSLNKYGMVK — within error, -0.712 ± 0.92
- IEGWHTRVHRRTLIVMCLIG — within error, 1.09 ± 0.41
- KRNLRVHSTGIFRYRIWKA — within error, -0.047 ± 0.48
- VDPGDVVFLLRPRSEHWGVG — higher, 2.12 ± 0.18
- LDVKSYAQVKRFSWSHSAFM — within error, 1.07 ± 0.4
- SLITGIRRSGMAICLDLWAG — within error, -1.21 ± 2.7
- AHFKYN — within error, 0.271 ± 1.4
- NNLRLKGKKRSYRCSVIDLT — within error, -0.256 ± 0.39
- LATAEASRNYVGYFGWSFMN — within error, 0.098 ± 1.1
- YLDVLGAFC — within error, -0.214 ± 0.47
- SITVPGFVAQISGVPIREYC — within error, 0.348 ± 0.79
- WLLTNPPLIVFTVRRNSRFS — within error, -1.09 ± 1.9
- SLPLTVVLYCHRYG — higher, 5.05 ± 0.064
- YISLRFISYYYYVRGKFYMK — within error, 0.672 ± 0.56
- LLQVWYFFR — within error, 0.296 ± 0.66
- HHLDPGQTHEIVSCSTWFTF — lower, -0.397 ± 0.29
- LIHLMRRNAAKTPGAQRDN — within error, 0.947 ± 0.7
- VMWRFKSVTCI — lower, -0.393 ± 0.33
- GSTDGKGVTQRNYVNSILYV — within error, 0.472 ± 0.78
- NNLLLSYSSFYMLMFQ — higher, 3.42 ± 0.076
- TISAI — within error, 0.142 ± 0.92
- QIFYSFTLYCNRNGWRDVFL — within error, 0.269 ± 0.59
- LRYSIISLAANSKTADG — within error, 0.663 ± 0.7
- MLKGMQSDSLKLNGDVDPCV — within error, 0.175 ± 0.28
- LITLAFVVSCVSYSRGSKRR — higher, 1.26 ± 0.17
- YFRLHSFFFVESQGICVELR — within error, -0.251 ± 0.69
- CSEISCPLTKHRCGTLVRVL — within error, -0.761 ± 1.2
- RNQKGIL — within error, -0.042 ± 0.23
- SLFSWVCRSITGPILRISLR — within error, 0.73 ± 0.24
- GVRCRLLRIPFVSISRSGWR — within error, 0.743 ± 0.58
- SFQFVSSCDIRRFAISRATG — within error, -0.152 ± 0.47
- VLLFNHYFLRAAVIIAWVGW — within error, -0.618 ± 1.6
- ICMKLLFEYLVPVLRQAH — within error, -0.307 ± 1.2
- CRSSSERSIFG — within error, 0.439 ± 0.53
- GGLKQFTGSRTHGLWSNGQM — within error, -0.337 ± 0.89
- RCINGNIYNKSW — within error, 0.18 ± 0.26
- SFLSCRWLVFRLMKLRYICA — within error, 0.444 ± 1.4
- AIWVDVTLFTEKADWVSLRR — higher, 2.42 ± 0.28
- HLVGWESR — within error, 0.476 ± 0.79
- SNGLGMVRDR — within error, -0.172 ± 0.67
- VWCRFERDTISKLCASWGRR — within error, -0.237 ± 1.9
- LNRVEYS — higher, 6.843 ± 0.068
- IGDRKMSY — within error, 0.145 ± 0.71
- IDCGSFSYKQSMQLMCKSAQ — within error, -0.19 ± 0.28
- HSWCMSSSSIKFVCLENDLL — higher, 6.804 ± 0.061
- TFNGFFCRCPSFKIYFHEVL — within error, 0.825 ± 0.24
- YYIVVCR — within error, 0.932 ± 0.97
- MDIFDTLAWTF — within error, 0.632 ± 0.58
- RAYTCRCEFAQGFVYNLIFS — higher, 5.4 ± 0.079
- HARTSRVRNDSSRAALNARW — within error, -0.392 ± 0.36
- QFFQPCVKC — within error, 1.06 ± 0.57
- PDFNPMSVVNGCSGSRWLNA — within error, -0.676 ± 0.75
- NVRLHVVYVSPSYACFIWSW — within error, 0.343 ± 1.4
- TYLRMCGSSTR — within error, -0.14 ± 0.3
- SKGPWGLY — within error, -0.517 ± 1.1
- VTPGRLQRLVM — lower, -1.39 ± 0.58
- TGNCAMFPTWLHVIPFSQY — higher, 3.1 ± 0.14
- TRMRSSKSSVA — within error, 0.532 ± 0.42
- TNDKCHSITVFSYREVDWTW — within error, 0.445 ± 0.29
- LYVYTYYVMVLVGQKR — within error, -0.698 ± 0.93
- GVGRGCYSMACCSAGRLTDG — within error, -0.122 ± 0.85
- AVGSDWDVYWVPRRMRMMCS — within error, -1.84 ± 2.7
- VPLVVNRDARH — within error, 1.26 ± 0.59
- LFDWWCFEKYLICRVGSLTF — within error, -0.091 ± 0.51
- DLNNGDAKSDRFYGSFLHSW — lower, -0.612 ± 0.32
- RSLQDGILKTKNCL — within error, 0.659 ± 0.24
- IFWGWSIQG — within error, 1.17 ± 0.58
- RASWNMNFSNFFDKMCRIPS — within error, -0.334 ± 0.35
- DGDSLGCYWDASLARQCFGR — within error, -0.086 ± 0.29
- TRYTKKWQVLTDWSVGYTGT — within error, -0.443 ± 0.41
- SIMGVDRLVVVWYGFDRCGF — within error, 1.31 ± 0.66
- VNSRCLSAYTK — within error, 0.46 ± 0.34
- RLNKWWRTKDSYTGL — within error, 0.258 ± 0.41
- VYWRREVSI — within error, 0.312 ± 1.2
- TEQYCS — within error, 0.404 ± 1
- VFTGLLLL — within error, -0.034 ± 0.36
- VRPMSDNSRVCVKSDNRSTG — lower, -1.14 ± 0.93
- VLFGS — within error, -0.462 ± 0.93
- TVRVVDLGQVVGSGVMASMP — higher, 1.23 ± 0.17
- CFSKLEISFDESFR — within error, -0.154 ± 0.28
- WYEVRYMLTQSYRVHMLFLI — within error, -0.322 ± 1.7
- VSHIAPRWPLSRTIRETQRM — within error, 0.479 ± 1.2
- RFWVYGKGILMVLGAFFCL — within error, 0.07 ± 0.56
- AYRNKETMCSLRTCRMVCSR — within error, 0.206 ± 0.34
- RGSQTLGCVSGLHHHRFAIL — lower, -1.14 ± 0.63
- IYWRILEL — within error, -0.034 ± 0.85
- NIGMVRFFLGAN — lower, -0.71 ± 0.61
- NILFCWMGTMYPLLLSAYGR — lower, -0.793 ± 0.48
- YYLSVNR — within error, -0.116 ± 0.67
- RWDSRQGFSRASQVARRADS — within error, -0.391 ± 0.39
- ASAWARNVVRSTVMKVSWVG — within error, 0.543 ± 0.45
- WIATC — within error, 0.214 ± 0.29
- RFETIDANKVILSVKCRWAK — higher, 2.56 ± 0.17
- SKRATYFFTASLGTQRCLMK — within error, 1.29 ± 0.9
- NWMTLRWVLGGLSNGFDGSH — higher, 4.41 ± 0.073
- CMVMLGSEQKFYMVVRPLKI — within error, -0.085 ± 0.41
- NFGLRRYSNARMGMDCGWLC — within error, -0.011 ± 0.45
- MLMLSGVF — lower, -0.782 ± 0.53
- FSCMRWM — within error, 0.73 ± 0.43
- VVNSSS — within error, 0.537 ± 0.85
- PRVLHTSVGFCLFNEYCSTT — higher, 2.45 ± 0.18
- VVDEKREVRSLANVNTASSL — within error, 0.1 ± 0.28

In the case of SDIMDFEY, the amyloid nucleation score is reported as “inactive”.
For LLCARCRMSVSEFPNPGVSY, the amyloid nucleation score was “inactive”.
For KGVHGYCRRIM, the amyloid nucleation score was “inactive”.
With CNQMSFFTEALVNKLHLFFT the amyloid nucleation score was “inactive”.
In the case of IFVFWTALSTSHNGWGVPVM, the amyloid nucleation score is reported as “inactive”.
In the case of RCYSFRSHRRNFNIYVLSKW, the amyloid nucleation score is reported as “inactive”.
For VTRFRYECRSGHRKHPGGMD, the amyloid nucleation score was “inactive”.
In the case of SWWEFECETS, the amyloid nucleation score is reported as “inactive”.
In the case of PINYVDRIRYVCMWCLFVAF, the amyloid nucleation score is reported as “inactive”.
In the case of LFGDLTNFQTFYT, the amyloid nucleation score is reported as “inactive”.
With CNILVTRFSNSREFNRCTWR the amyloid nucleation score was “inactive”.
With CILGNME the amyloid nucleation score was “inactive”.
In the case of VSYLEGVRWLCIIYTGNRSW, the amyloid nucleation score is reported as “inactive”.
